Results on five molecules are retold here after paper PMC5512577 (Nature Communications, 2016).

B1: FITC-labelled farnesylated and carboxy-methylated C-terminal peptide of Rheb (residues 175-181) (peptide)
peptide: {FITC}-SQGKSSC(Far)-OMe
modifications: reading uncertain
notes: also called Rheb peptide; Fluorescein-SQGKSSC(Far)-OMe; source: synthetic peptide, bought: JPT
B2: phosphodiesterase 6 delta subunit (PDE6δ), N-terminal histidine-tagged (natural protein)
chain: MSAKDERAREILRGFKLNWMNLRDAETGKILWQGTEDLSVPGVEHEARVPKKILKCKAVSRELNFSSTEQMEKFRLEQKVYFKGQCLEEWFFEFGFVIPNSTNTWQSLIEAAPESQMMPASVLTGNVIIETKFFDDDLLVSTSRVRLFYV
notes: PDE6δ, the delta subunit of phosphodiesterase 6; the PDE6δ of PDB 3T5G was the search model for the structure solved here (5F2U); also called PrBP/PDE6δ; source: E. coli BL21-CodonPlus(DE3)-RIL, purified (Ni-NTA, gel filtration)
B3: TAMRA-labelled farnesylated and carboxy-methylated C-terminal peptide of INPP5E (residues 637-644) (peptide)
peptide: SQNSSTIC(Farnesyl)-OMe
modifications: also: TAMRA label, position not given here
notes: C-terminal peptide of inositol polyphosphate 5'-phosphatase E (INPP5E), printed as residues 637-644 with the farnesylated Cys644; also called INPP5E peptide; TAMRA-labelled INPP5E peptide; source: synthetic peptide, bought: JPT
B4: Rheb(SI) peptide (K178S/S180I), farnesylated and carboxy-methylated (peptide)
peptide: SQGSSIC(Far)-OMe
modifications: reading uncertain
notes: C-terminal peptide of Rheb with the -1 and -3 residues swapped to those of INPP5E; Unlabelled; also called SQGSSIC(Far)-OMe; source: synthetic peptide, bought: CambridgePeptides
B5: full-length Arl2, C-terminal histidine-tagged, bound to GppNHp or mantGppNHp (natural protein, UniProt Q9D0J4 1-184, looked up)
chain: MGLLTILKKMKQKERELRLLMLGLDNAGKTTILKKFNGEDVDTISPTLGFNIKTLEHRGFKLNIWDVGGQKSLRSYWRNYFESTDGLIWVVDSADRQRMQDCQRELQSLLVEERLAGATLLIFANKQDLPGALSCNAIQEALELDSIRSHHWRIQGCSAVTGEDLLPGIDWLLDDISSRVFTAD
notes: Loaded with GppNHp (release assays) or mantGppNHp (kinetics with PDE6δ); Species surmised as mouse from earlier work of the same laboratory; the human protein is P36404; also called Arl2^fl; Arl2·GppNHp; source: E. coli BL21-CodonPlus(DE3)-RIL, purified (Ni-NTA, gel filtration)

Ends that are not written are not given here. * marks the point of attachment. FITC = O=C1OC2(c3ccc(O)cc3Oc3cc(O)ccc32)c2ccc(NC(=S)*)cc21; Farnesyl = CC(C)=CCC/C(C)=C/CC/C(C)=C/C*; Far = not defined here

Conditions in all cases: both partners purified
Test [1] has as its target B2. Kind of test: fluorescence polarisation; stopped flow; complex of 1 μM PDE6δ with 0.2 μM labelled peptide mixed with 100-fold excess of unlabelled peptide, no Arl protein; 20 °C. For orientation: Fluorescence polarisation rises when a labelled molecule tumbles more slowly, as on binding a larger partner.
Test [2] addresses B2. Put plainly: fluorescence polarisation; 0.01 μM TAMRA-labelled INPP5E peptide or 0.5 μM FITC-labelled Rheb peptide titrated with increasing PDE6δ; 20 °C; 25 mM Tris-HCl pH 7.5, 50 mM NaCl, 3 mM DTE; quadratic fit.
Test [3] deals with B3. Put plainly: fluorescence polarisation; stopped flow; complex of 1 μM PDE6δ with 0.2 μM labelled peptide mixed with 100-fold excess of unlabelled peptide and 10 μM Arl3·GppNHp; 20 °C.
Test [4] addresses T1, full-length Arl3, C-terminal histidine-tagged, bound to GppNHp or mantGppNHp (UniProt Q9WUL7 1-182).
T1 construct: Loaded with the non-hydrolysable GTP analogue GppNHp (release assays) or mantGppNHp (kinetics with PDE6δ); Species surmised as mouse from earlier work of the same laboratory; the human protein is P36405; also called Arl3^fl; Arl3·GppNHp; source: E. coli BL21-CodonPlus(DE3)-RIL, purified (Ni-NTA, gel filtration)
Put plainly: fluorescence polarisation; stopped flow; kon: 0.2 μM mantGppNHp-loaded Arl protein with increasing PDE6δ; koff: 2 μM PDE6δ with 0.2 μM mantGppNHp-loaded Arl protein mixed with 200-fold excess of unlabelled Arl protein; Kd=koff/kon; 20 °C.

Test [5] addresses T2, N-terminally truncated Arl3 (aa 18-177), bound to GppNHp or mantGppNHp (UniProt Q9WUL7 18-177).
T2 construct: Arl3 residues 18-177, without the N-terminal helix; Species surmised as mouse from earlier work of the same laboratory; also called Arl3^ΔN; source: E. coli BL21-CodonPlus(DE3)-RIL, purified (GSH column, tag cleaved, gel filtration); not shown: GST, N-terminal, cleaved
The test is described as above.

The target in test [6] is B5. The description is as above.
Test [7] addresses T3, N-terminally truncated Arl2 (aa 17-178), bound to mantGppNHp (UniProt Q9D0J4 17-178).
T3 construct: Arl2 residues 17-178; Species surmised as mouse from earlier work of the same laboratory; also called Arl2^ΔN; source: E. coli BL21-CodonPlus(DE3)-RIL, purified (GSH column, tag cleaved, gel filtration); not shown: GST, N-terminal, cleaved
Described as above.

The target in test [8] is B2. Kind of test: fluorescence polarisation; competition: complex of 0.5 μM FITC-labelled Rheb peptide and 1 μM PDE6δ titrated with unlabelled mutant peptide; fitted with a competition model; 20 °C.
In test [9] the target is B2. Kind of test: fluorescence polarisation; stopped flow; kon: 0.2 μM mantGppNHp-loaded Arl protein with increasing PDE6δ; koff: 2 μM PDE6δ with 0.2 μM mantGppNHp-loaded Arl protein mixed with 200-fold excess of unlabelled Arl protein; Kd=koff/kon; 20 °C.

As a reminder, the koff is a measure of how fast the partners let go of each other. Read a low koff as slow dissociation. The Kd is the equilibrium constant for the complex coming apart. B1: the koff in [1] was 0.95 s⁻¹. In test [2], this molecule returned a Kd of 445 nM.

In the case of B2, the “fold acceleration of koff by Arl3·GppNHp against no Arl” value in [3] is ~10000 fold. Also, the Kd in test [4] is 5.8 nM; in test [5], 217 nM; in test [6], 149 nM; in test [7], 316 nM.

As to B3, the Kd in [2] stood at 3.7 nM.

As to B4, binding in [8] was characterised by a dissociation constant (Kd) of 12 nM.

On to B5, for which, in test [9], the “fold difference in koff against Arl2^ΔN” value was 3 fold.
